Measurements as given in publication PMC5932034.

Molecular target: T1, FlhA^C−link (longer FlhA^C construct that includes the linker) (Salmonella enterica serovar Typhimurium ST313), P40729
T1 chain: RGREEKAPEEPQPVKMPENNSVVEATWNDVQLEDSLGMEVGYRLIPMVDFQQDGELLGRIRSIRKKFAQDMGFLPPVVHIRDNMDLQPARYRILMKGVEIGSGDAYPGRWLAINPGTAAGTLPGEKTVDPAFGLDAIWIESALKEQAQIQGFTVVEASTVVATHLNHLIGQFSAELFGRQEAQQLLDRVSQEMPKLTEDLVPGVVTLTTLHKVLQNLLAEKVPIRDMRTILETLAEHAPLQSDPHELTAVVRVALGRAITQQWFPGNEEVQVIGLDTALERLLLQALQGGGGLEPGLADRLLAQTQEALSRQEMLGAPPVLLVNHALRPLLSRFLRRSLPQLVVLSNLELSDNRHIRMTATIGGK
Test: SEC-MALS; Superdex 200 10/300 GL; 50 mM NaPi pH 6.8, 0.1 M NaCl, 0.05% NaN3; samples at 0.05–0.5 mM; room temperature
Conditions: remark: other sources report otherwise

B1: FlhA^C−link (longer FlhA^C construct that includes the linker), P40729 328-692 (domain or fragment)
chain: T1 chain
B1 gave a stoichiometry N of 2.
